The values below come from publication doi:10.1101/2023.03.28.534355 (bioRxiv, 2023).

The target of data set [1] is GBP1 D308S/L309A/P310A (human) (UniProt P32455). In words: mass photometry.
Data set [2] concerns the target human Guanylate-Binding Protein 1 (GBP1), full-length, non-farnesylated (human) (UniProt P32455). In words: mass photometry.
Data set [3] has the same target. In words: SEC-MALS.
The data set “mass photometry” deals with the molecule itself. The data set is described as follows: mass photometry.

With “GBP1 D308S/L309A/P310A (from UniProt P32455 1-592) (enzyme)”, in data set [1], the stoichiometry N (as a rule, the number of molecules, sites or subunits per partner or assembly) worked out at 2.

For “human Guanylate-Binding Protein 1 (GBP1), full-length, non-farnesylated (from UniProt P32455 1-592) (enzyme)”, the stoichiometry N in data set [2] and in data set [3] was 2 each time.

B1: GBP1 D308S (enzyme)
chain: MASEIHMTGPMCLIENTNGRLMANPEALKILSAITQPMVVVAIVGLYRTGKSYLMNKLAGKKKGFSLGSTVQSHTKGIWMWCVPHPKKPGHILVLLDTEGLGDVEKGDNQNDSWIFALAVLLSSTFVYNSIGTINQQAMDQLYYVTELTHRIRSKSSPDENENEVEDSADFVSFFPDFVWTLRDFSLDLEADGQPLTPDEYLTYSLKLKKGTSQKDETFNLPRLCIRKFFPKKKCFVFDRPVHRRKLAQLEKLQDEELDPEFVQQVADFCSYIFSNSKTKTLSGGIQVNGPRLESLVLTYVNAISSGSLPCMENAVLALAQIENSAAVQKAIAHYEQQMGQKVQLPTETLQELLDLHRDSEREAIEVFIRSSFKDVDHLFQKELAAQLEKKRDDFCKQNQEASSDRCSALLQVIFSPLEEEVKAGIYSKPGGYRLFVQKLQDLKKKYYEEPRKGIQAEEILQTYLKSKESMTDAILQTDQTLTEKEKEIEVERVKAESAQASAKMLQEMQRKNEQMMEQKERSYQEHLKQLTEKMENDRVQLLKEQERTLALKLQEQEQLLKEGFQKESRIMKNEIQDLQTKMRRRKACTIS
With B1, the “stoichiometry N” value in “mass photometry” was 2.
